# Laboratory results as given in article PMC6402485 (Biochemistry, 2013).
# Where two headings read alike, the source gives them in different places.
# B1: Wild type SgrAI ENase (enzyme, Streptomyces griseus)
# chain: PFTYSIEATRNLATTERCIQDIRNAPVRNRSTQFQLAQQNMLAYTFGEVIPGFASAGINGMNYRDVIGRPVENAVTEGTHFFRDDFRVDSNAKAKVAGDIFEIVSSAVMWNCAARWNSLMVGEGWRSQPRYSRPTLSPSPRRQVAVLNLPRSFDWVSLLVPESQEVIEEFRAGLRKDGLGLPTSTPDLAVVVLPEEFQNDEMWREEIAGLTRPNQILLSGAYQRLQGRVQPGEISLAVAFKRSLRSDRLYQPLYEANVMQLLLEGKLGAPKVEFEVHTLAPEGTNAFVTYEAASLYGLAEGRSAVHRAIRELYVPPTAADLARRFFAFLNERMELVNG
# Legend:
# native MS [1] = target: the molecule itself; experiment: native MS
# native MS [2] = target: the molecule itself; experiment: native MS; remark: listed apart in the source
protein,measurement,setting,value
B1,stoichiometry N,native MS [1],38
same,stoichiometry N,native MS [2],2
